Molecular target: Soc-SpyCatcher fusion protein (displayed on T4 phage: T4-SpyCatcher phage) (bacteriophage T4)
Test: co-sedimentation

SUMO-RBD-SpyTag fusion protein, refolded (from UniProt P0DTC2 319-545) (domain or fragment)
copies per capsid (rRBD molecules per capsid): 300

Reference: PMC8442874
